Assay results taken from patent publication US20110311515A1.

B1: building block of RSV407 (monovalent Nanobody) (VHH)
VHH: EVQLVESGGGLVQAGGSLSISCAASGGSLSNYVLGWFRQAPGKEREFVAAINWRGDITIGPPNVEGRFTISRDNAKNTGYLQMNSLAPDDTAVYYCGAGTPLNPGAYIYDWSYDYWGRGTQVTVSS
B2: RSV407 (VHH)
chain: EVQLVESGGGLVQAGGSLSISCAASGGSLSNYVLGWFRQAPGKEREFVAAINWRGDITIGPPNVEGRFTISRDNAKNTGYLQMNSLAPDDTAVYYCGAGTPLNPGAYIYDWSYDYWGRGTQVTVSSGGGGSGGGGSGGGGSEVQLVESGGGLVQAGGSLSISCAASGGSLSNYVLGWFRQAPGKEREFVAAINWRGDITIGPPNVEGRFTISRDNAKNTGYLQMNSLAPDDTAVYYCGAGTPLNPGAYIYDWSYDYWGRGTQVTVSSGGGGSGGGGSGGGGSEVQLVESGGGLVQAGGSLSISCAASGGSLSNYVLGWFRQAPGKEREFVAAINWRGDITIGPPNVEGRFTISRDNAKNTGYLQMNSLAPDDTAVYYCGAGTPLNPGAYIYDWSYDYWGRGTQVTVSSAAAEQKLISEEDLNGAAHHHHHH

Substrate: F protein of RSV (hRSV strain Long LM-2) (hRSV strain Long) (UniProt P12568)
Sequence (P12568 26-574): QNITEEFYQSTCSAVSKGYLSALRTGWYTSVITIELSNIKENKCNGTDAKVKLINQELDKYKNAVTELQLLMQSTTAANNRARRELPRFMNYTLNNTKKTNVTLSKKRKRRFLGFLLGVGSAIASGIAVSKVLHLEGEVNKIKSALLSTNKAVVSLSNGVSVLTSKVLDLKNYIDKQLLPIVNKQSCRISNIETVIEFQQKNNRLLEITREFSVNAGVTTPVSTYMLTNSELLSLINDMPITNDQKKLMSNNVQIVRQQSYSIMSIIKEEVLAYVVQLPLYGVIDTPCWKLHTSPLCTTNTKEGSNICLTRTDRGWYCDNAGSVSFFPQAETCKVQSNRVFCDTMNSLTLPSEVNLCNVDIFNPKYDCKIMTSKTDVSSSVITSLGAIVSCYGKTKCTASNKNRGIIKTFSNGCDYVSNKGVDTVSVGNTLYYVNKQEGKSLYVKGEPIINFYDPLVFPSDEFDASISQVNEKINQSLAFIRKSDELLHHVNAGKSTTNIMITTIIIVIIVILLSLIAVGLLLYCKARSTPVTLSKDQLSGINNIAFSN
Assay: cell-based or functional assay

| Binder | IC50, neutralization of RSV infection, Long strain [nM] |
| --- | --- |
| B1 | 50 to 100 |
| B2 | 0.1 |
